Test results taken from US20200262877A1, “ION CHANNEL-BINDING PEPTIDES AND METHODS OF USE THEREOF” (priority 2017, published 2020).

Experiments:
GABA = assay: Ion channel panel (IonWorks Barracuda): GABA; type: cell-based; conditions: 100% = no change, <100% = inhibition
Method in brief: (§1)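 Transfected HEK293 or CHO cells were exposed for at least 5 min to peptides at 200 nM and 20 μM final, tested in duplicate, in HEPES-buffered physiological saline. Activation was taken as peptide-plus-agonist current over control current ×100, and inhibition as 1 minus that ratio ×100. Each channel's control was its own reference compound.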

NR2B = biological target: T1, NR2B (Homo sapiens, UniProt Q13224); assay: Ion channel panel (IonWorks Barracuda): NR2B; type: cell-based; conditions: 100% = no change, <100% = inhibition
T1 construct: host or cells: HEK293 or CHO
Method in brief: as §1

Cav2.1 = biological target: T2, Cav2.1 (Homo sapiens, UniProt O00555); assay: cell-based; conditions: 100% = no change, <100% = inhibition
T2 construct: host or cells: HEK293 or CHO
Method in brief: as §1

Cav2.2 = biological target: T3, Cav2.2 (Homo sapiens, UniProt Q00975); assay: cell-based; conditions: 100% = no change, <100% = inhibition
T3 construct: host or cells: HEK293 or CHO
Method in brief: as §1

Kv2.1 = biological target: T4, Kv2.1 (Homo sapiens, UniProt Q14721); assay: cell-based; conditions: 100% = no change, <100% = inhibition
T4 construct: host or cells: HEK293 or CHO
Method in brief: as §1

Kv1.2 = biological target: T5, Kv1.2 (Homo sapiens, UniProt P16389); assay: cell-based; type: cell-based; conditions: 100% = no change, <100% = inhibition
T5 construct: host or cells: HEK293 or CHO
Method in brief: as §1

Kv1.1 = biological target: T6, Kv1.1 (Homo sapiens, UniProt Q09470); assay: cell-based; type: cell-based; conditions: 100% = no change, <100% = inhibition
T6 construct: host or cells: HEK293 or CHO
Method in brief: as §1

Kv1.3 = biological target: T7, Kv1.3 (Homo sapiens, UniProt P22001); assay: cell-based; type: cell-based; conditions: 100% = no change, <100% = inhibition
T7 construct: host or cells: HEK293 or CHO
Method in brief: as §1

Nav1.7 = biological target: T8, Nav1.7 (Homo sapiens, UniProt Q15858); assay: cell-based; type: cell-based; conditions: 100% = no change; for Activity of Nav1.7 with peptide, expressed as a percentage of the reference compound: peptide at 0.2 μM; for Activity of Nav1.7 with peptide (percentage of the reference compound): peptide at 20 μM
T8 construct: host or cells: HEK293 or CHO

α3β4 = biological target: T9, α3β4 (Homo sapiens, UniProt P30926+P32297); assay: Ion channel panel (IonWorks Barracuda): α3β4; type: cell-based; conditions: 100% = no change, <100% = inhibition
T9 construct: host or cells: HEK293 or CHO
Method in brief: as §1

TRPA1 = biological target: T10, TRPA1 (Homo sapiens, UniProt O75762); assay: Ion channel panel (IonWorks Barracuda): TRPA1; type: cell-based; conditions: 100% = no change, <100% = inhibition
T10 construct: host or cells: HEK293 or CHO
Method in brief: as §1

5HT3a = biological target: T11, 5HT3a (Homo sapiens, UniProt P46098); assay: Ion channel panel (IonWorks Barracuda): 5HT3a; type: cell-based
T11 construct: host or cells: HEK293 or CHO
T11 sequence (P46098 whole entry, looked up): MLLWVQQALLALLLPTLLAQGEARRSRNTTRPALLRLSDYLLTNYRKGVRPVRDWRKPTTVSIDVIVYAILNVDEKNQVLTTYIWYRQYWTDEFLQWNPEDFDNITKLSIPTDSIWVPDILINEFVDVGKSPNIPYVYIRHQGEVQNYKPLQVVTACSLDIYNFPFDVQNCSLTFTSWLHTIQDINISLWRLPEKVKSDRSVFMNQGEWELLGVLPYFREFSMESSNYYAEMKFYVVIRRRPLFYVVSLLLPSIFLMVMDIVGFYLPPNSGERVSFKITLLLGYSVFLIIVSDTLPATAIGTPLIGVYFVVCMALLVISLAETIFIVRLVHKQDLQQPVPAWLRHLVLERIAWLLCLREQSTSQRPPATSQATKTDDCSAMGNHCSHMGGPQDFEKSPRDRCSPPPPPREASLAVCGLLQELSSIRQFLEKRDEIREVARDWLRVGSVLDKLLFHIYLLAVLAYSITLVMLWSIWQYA
Method in brief: as §1

TRPV1 = biological target: T12, TRPV1 (Homo sapiens, UniProt Q8NER1); assay: Ion channel panel (IonWorks Barracuda): TRPV1; type: cell-based; conditions: 100% = no change, <100% = inhibition
T12 construct: host or cells: HEK293 or CHO
Method in brief: as §1

Nav1.5 = Nav1.5 (Homo sapiens, UniProt Q14524); assay: in vitro; conditions: 100% = no change; for Activity of Nav1.5 with peptide, expressed as a percentage of the reference compound: peptide at 0.2 μM; for Activity of Nav1.5 with peptide (percentage of the reference compound): peptide at 20 μM
Method in brief: as §1

hERG = hERG (Homo sapiens, UniProt Q12809); assay: in vitro; conditions: 100% = no change, <100% = inhibition
Method in brief: as §1

α4β2 = biological target: T13, α4β2 (Homo sapiens, UniProt P17787+P43681); assay: Ion channel panel (IonWorks Barracuda): α4β2; type: cell-based; conditions: 100% = no change, <100% = inhibition
T13 construct: host or cells: HEK293 or CHO
Method in brief: as §1

NR2A = biological target: T14, NR2A (Homo sapiens, UniProt Q12879); assay: Ion channel panel (IonWorks Barracuda): NR2A; type: cell-based; conditions: 100% = no change, <100% = inhibition
T14 construct: host or cells: HEK293 or CHO
Method in brief: as §1

Kir2.1 = biological target: T15, Kir2.1 (Homo sapiens, UniProt P63252); assay: Ion channel panel (IonWorks Barracuda): Kir2.1; type: cell-based; conditions: 100% = no change, <100% = inhibition
T15 construct: host or cells: HEK293 or CHO
Method in brief: as §1

[1] = first of two Nav1.7 columns (probably TP1)
[2] = second of two Nav1.7 columns (probably TP2)
[3] = first of two Nav1.5 columns (probably TP1)
[4] = second of two Nav1.5 columns (probably TP2)

Sequence of Nav1.5 (Q14524 whole entry): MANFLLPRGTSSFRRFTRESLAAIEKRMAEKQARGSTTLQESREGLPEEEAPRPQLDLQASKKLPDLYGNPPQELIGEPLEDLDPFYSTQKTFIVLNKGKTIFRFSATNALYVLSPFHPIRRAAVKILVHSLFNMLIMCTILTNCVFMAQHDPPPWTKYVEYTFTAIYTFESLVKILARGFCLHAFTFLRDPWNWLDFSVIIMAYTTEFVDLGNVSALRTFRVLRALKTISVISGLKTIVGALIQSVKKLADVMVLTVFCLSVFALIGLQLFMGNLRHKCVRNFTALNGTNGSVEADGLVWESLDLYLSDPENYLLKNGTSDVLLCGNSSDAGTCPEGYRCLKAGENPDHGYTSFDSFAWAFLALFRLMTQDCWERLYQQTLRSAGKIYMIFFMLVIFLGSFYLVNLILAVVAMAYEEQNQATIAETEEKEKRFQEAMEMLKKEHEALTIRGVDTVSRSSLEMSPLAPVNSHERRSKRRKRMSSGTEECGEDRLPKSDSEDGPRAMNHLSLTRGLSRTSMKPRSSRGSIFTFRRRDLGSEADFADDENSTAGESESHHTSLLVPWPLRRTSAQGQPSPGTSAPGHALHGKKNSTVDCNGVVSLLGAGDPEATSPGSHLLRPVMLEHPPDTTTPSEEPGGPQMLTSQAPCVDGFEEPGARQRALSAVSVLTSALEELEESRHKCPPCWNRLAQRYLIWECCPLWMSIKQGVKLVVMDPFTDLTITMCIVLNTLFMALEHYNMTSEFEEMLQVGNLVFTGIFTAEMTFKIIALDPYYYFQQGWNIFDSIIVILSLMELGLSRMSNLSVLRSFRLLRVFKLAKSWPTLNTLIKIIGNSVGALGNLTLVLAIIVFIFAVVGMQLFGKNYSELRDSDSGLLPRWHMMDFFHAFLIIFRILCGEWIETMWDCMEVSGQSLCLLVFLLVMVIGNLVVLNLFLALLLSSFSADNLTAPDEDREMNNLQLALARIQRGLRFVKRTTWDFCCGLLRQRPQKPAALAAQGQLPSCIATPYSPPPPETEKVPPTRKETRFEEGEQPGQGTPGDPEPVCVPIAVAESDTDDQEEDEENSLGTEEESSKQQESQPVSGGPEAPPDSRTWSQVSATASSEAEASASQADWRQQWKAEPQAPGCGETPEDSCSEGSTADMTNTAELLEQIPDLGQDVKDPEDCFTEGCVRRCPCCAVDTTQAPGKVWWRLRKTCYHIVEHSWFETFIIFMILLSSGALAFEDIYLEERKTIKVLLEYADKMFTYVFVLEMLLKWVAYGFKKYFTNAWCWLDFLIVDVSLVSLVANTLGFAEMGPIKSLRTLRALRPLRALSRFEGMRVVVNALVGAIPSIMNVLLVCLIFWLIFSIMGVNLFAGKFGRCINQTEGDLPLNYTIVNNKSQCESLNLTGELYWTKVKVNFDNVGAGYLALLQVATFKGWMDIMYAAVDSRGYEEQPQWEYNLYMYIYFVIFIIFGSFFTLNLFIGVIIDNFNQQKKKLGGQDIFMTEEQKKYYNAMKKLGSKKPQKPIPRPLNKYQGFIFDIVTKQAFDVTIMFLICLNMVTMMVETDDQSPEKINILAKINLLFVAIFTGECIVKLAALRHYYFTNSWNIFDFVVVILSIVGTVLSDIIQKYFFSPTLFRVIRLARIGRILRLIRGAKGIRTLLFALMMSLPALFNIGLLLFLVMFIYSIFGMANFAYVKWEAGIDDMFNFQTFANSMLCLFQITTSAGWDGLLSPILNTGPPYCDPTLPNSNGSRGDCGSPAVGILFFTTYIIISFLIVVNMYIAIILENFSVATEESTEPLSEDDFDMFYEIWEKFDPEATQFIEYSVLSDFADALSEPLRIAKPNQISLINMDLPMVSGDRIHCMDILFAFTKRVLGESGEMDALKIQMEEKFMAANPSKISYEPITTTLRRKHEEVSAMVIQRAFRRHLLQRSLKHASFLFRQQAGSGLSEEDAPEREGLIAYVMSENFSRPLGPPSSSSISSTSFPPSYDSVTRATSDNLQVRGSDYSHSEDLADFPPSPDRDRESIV
T8 sequence (Q15858 whole entry): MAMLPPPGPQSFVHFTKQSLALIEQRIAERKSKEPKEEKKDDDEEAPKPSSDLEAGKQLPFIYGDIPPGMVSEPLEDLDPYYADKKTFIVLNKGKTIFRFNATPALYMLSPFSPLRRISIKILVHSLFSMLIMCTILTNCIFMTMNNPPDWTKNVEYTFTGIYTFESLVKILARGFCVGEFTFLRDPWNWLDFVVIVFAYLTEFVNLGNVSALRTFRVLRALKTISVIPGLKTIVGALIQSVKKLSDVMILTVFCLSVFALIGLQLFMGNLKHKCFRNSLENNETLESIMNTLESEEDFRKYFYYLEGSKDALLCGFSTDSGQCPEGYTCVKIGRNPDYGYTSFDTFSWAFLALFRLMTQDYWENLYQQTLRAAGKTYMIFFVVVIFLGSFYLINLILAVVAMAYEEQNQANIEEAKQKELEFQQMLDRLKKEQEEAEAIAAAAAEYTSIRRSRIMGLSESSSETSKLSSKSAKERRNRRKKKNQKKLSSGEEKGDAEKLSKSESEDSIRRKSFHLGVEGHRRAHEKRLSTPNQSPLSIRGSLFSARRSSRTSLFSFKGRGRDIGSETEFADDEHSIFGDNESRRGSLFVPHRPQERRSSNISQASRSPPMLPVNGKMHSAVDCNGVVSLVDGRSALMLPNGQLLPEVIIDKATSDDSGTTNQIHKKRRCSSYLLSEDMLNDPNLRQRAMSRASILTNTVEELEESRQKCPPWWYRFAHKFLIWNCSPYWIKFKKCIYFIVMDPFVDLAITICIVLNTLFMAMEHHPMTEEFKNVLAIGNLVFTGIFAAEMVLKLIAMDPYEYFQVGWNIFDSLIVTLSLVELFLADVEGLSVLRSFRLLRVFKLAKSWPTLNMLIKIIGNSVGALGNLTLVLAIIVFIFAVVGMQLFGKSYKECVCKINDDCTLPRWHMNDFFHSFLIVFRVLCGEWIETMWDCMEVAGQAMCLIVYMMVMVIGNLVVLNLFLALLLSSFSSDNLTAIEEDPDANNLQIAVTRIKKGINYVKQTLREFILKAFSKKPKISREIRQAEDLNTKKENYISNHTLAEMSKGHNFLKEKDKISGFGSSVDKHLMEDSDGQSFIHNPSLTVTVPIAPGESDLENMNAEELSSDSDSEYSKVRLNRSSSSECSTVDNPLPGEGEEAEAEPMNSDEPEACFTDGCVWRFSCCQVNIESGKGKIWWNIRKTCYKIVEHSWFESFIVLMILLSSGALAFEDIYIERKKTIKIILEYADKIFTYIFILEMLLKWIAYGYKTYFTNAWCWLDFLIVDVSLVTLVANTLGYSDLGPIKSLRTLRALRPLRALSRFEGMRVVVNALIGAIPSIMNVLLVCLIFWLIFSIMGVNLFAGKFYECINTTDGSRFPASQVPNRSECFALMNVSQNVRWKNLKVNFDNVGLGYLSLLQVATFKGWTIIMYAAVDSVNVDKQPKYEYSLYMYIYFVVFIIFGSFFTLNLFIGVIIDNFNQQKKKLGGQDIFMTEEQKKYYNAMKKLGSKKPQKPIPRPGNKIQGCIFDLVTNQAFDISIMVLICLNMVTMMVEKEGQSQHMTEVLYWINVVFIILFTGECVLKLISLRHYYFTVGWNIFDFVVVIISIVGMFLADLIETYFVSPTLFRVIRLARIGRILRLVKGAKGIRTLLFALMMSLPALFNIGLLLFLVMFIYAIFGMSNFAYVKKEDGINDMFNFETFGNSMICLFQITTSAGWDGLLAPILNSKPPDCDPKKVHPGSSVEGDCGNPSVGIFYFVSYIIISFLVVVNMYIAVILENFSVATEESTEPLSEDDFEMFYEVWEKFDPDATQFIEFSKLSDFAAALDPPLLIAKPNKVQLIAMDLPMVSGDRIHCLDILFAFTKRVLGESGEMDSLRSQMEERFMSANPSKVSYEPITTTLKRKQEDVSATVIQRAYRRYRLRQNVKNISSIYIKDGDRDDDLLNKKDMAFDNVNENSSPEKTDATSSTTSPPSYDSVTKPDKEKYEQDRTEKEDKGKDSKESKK
T5 sequence (P16389 whole entry): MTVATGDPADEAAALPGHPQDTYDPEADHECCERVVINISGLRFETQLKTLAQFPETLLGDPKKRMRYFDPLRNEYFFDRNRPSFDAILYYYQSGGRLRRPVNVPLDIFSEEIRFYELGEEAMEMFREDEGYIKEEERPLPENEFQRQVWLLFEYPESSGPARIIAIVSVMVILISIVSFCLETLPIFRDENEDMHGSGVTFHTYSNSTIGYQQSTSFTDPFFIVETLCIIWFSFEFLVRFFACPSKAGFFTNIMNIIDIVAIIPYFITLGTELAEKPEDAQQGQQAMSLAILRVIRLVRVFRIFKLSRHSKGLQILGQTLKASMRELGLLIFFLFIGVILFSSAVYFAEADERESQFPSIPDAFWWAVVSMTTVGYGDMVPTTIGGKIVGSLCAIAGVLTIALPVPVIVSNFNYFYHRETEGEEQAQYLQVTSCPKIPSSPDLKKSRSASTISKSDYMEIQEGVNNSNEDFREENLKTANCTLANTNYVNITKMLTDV
T6 sequence (Q09470 whole entry): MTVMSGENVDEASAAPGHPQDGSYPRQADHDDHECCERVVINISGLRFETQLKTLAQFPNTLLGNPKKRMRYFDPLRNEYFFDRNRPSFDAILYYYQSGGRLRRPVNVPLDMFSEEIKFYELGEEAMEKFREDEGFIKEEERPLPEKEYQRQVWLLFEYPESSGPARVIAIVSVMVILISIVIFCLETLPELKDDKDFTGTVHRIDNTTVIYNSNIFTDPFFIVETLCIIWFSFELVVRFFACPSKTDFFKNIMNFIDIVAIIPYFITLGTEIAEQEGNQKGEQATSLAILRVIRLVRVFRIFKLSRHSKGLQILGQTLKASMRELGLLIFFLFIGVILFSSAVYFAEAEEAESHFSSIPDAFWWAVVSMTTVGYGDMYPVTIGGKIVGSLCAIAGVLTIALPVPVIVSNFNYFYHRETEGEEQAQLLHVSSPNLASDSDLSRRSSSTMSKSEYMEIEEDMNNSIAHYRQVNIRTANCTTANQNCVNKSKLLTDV

## 17 (GSRPTDIKCSASYQCFPVCKSRFGKTNGRCVNGLCDCF) [compound 17]
GABA; peptide at 0.2 μM
  Activity of GABA with peptide, expressed as a percentage of the reference compound: 97%
GABA; peptide at 20 μM
  Activity of GABA with peptide (percentage of the reference compound): 108%
NR2B; peptide at 0.2 μM
  Activity of NR2B with peptide, expressed as a percentage of the reference compound: 90%
NR2B; peptide at 20 μM
  Activity of NR2B with peptide (percentage of the reference compound): 77%
Cav2.1; peptide at 0.2 μM
  Activity of Cav2.1 with peptide, expressed as a percentage of the reference compound: 107%
Cav2.1; peptide at 20 μM
  Activity of Cav2.1 with peptide (percentage of the reference compound): 90%
Cav2.2; peptide at 0.2 μM
  Activity of Cav2.2 with peptide, expressed as a percentage of the reference compound: 117%
Cav2.2; peptide at 20 μM
  Activity of Cav2.2 with peptide (percentage of the reference compound): 100%
Kv2.1; peptide at 0.2 μM
  Activity of Kv2.1 with peptide, expressed as a percentage of the reference compound: 88%
Kv2.1; peptide at 20 μM
  Activity of Kv2.1 with peptide (percentage of the reference compound): 93%
Kv1.2; peptide at 0.2 μM
  Activity of Kv1.2 with peptide, expressed as a percentage of the reference compound: 97%
Kv1.2; peptide at 20 μM
  Activity of Kv1.2 with peptide (percentage of the reference compound): 47%
Kv1.1; peptide at 0.2 μM
  Activity of Kv1.1 with peptide, expressed as a percentage of the reference compound: 106%
Kv1.1; peptide at 20 μM
  Activity of Kv1.1 with peptide (percentage of the reference compound): 89%
Kv1.3; peptide at 0.2 μM
  Activity of Kv1.3 with peptide, expressed as a percentage of the reference compound: 96%
Kv1.3; peptide at 20 μM
  Activity of Kv1.3 with peptide (percentage of the reference compound): 6%
Nav1.7; [1]
  Activity of Nav1.7 with peptide, expressed as a percentage of the reference compound: 66%
  Activity of Nav1.7 with peptide (percentage of the reference compound): 75%
Nav1.7; [2]
  Activity of Nav1.7 with peptide, expressed as a percentage of the reference compound: 61%
  Activity of Nav1.7 with peptide (percentage of the reference compound): 60%
α3β4; peptide at 0.2 μM
  Activity of a3b4 with peptide, expressed as a percentage of the reference compound: 98%
α3β4; peptide at 20 μM
  Activity of a3b4 with peptide (percentage of the reference compound): 97%
TRPA1; peptide at 0.2 μM
  Activity of TRPA1 with peptide, expressed as a percentage of the reference compound: 176%
TRPA1; peptide at 20 μM
  Activity of TRPA1 with peptide (percentage of the reference compound): 129%
5HT3a
  Activity of 5HT3a with peptide (percentage of the reference compound): 85%
  Activity of 5HT3a with peptide, expressed as a percentage of the reference compound: 81%
TRPV1; peptide at 0.2 μM
  Activity of TRPV1 with peptide, expressed as a percentage of the reference compound: 99%
TRPV1; peptide at 20 μM
  Activity of TRPV1 with peptide (percentage of the reference compound): 82%
Nav1.5; [3]
  Activity of Nav1.5 with peptide, expressed as a percentage of the reference compound: 96%
  Activity of Nav1.5 with peptide (percentage of the reference compound): 95%
Nav1.5; [4]
  Activity of Nav1.5 with peptide, expressed as a percentage of the reference compound: 95%
  Activity of Nav1.5 with peptide (percentage of the reference compound): 94%
hERG; peptide at 0.2 μM
  Activity of hERG with peptide, expressed as a percentage of the reference compound: 85%
hERG; peptide at 20 μM
  Activity of hERG with peptide (percentage of the reference compound): 8%
α4β2; peptide at 0.2 μM
  Activity of a4b2 with peptide, expressed as a percentage of the reference compound: 93%
α4β2; peptide at 20 μM
  Activity of a4b2 with peptide (percentage of the reference compound): 78%
NR2A; peptide at 0.2 μM
  Activity of NR2A with peptide, expressed as a percentage of the reference compound: 83%
NR2A; peptide at 20 μM
  Activity of NR2A with peptide (percentage of the reference compound): 96%
Kir2.1; peptide at 0.2 μM
  Activity of Kir2.1 with peptide, expressed as a percentage of the reference compound: 103%
Kir2.1; peptide at 20 μM
  Activity of Kir2.1 with peptide (percentage of the reference compound): 84%
